Assay results taken from US20230060095A1 (Regeneron, published 2023).

T1: PRAME peptide on HLA-A*02:01 (human)
T1 peptide: SLLQHLIGL

T2: peptide on HLA-A*02:01 (human)
T2 peptide: SLLMWITQC


Columns and labels:
[1] = target: HLA-A2/PRAME (425-433) on HLA-A2*01 HEK293T cells pulsed with PRAME 425-433 peptide (human); assay: cell-based or functional assay
[2] = target: T1, PRAME peptide on HLA-A*02:01; assay: multimer staining
peptide on HLA-A*02:01 = target: T2, peptide on HLA-A*02:01; assay: activation reporter or marker
[3] = target: T3, soluble HLA:A2:PRAME (425-433) tetramer (human); assay: flow cytometry, soluble pMHC tetramer on CHO cells expressing the TCR;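 note: CHO cells transfected with vectors encoding full-length paired TCR alpha and beta chains, stained with PRAME/HLA tetramer and read by flow cytometry, each value reflects one listed TCR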
T3 construct: Commercial tetramer (MBL International); construct limits, biotin tag and streptavidin/fluorophore not described; also called PRAME/HLA tetramer reagent; PRAME (425-433)/HLA-A2

Binder | EC50 (µM) of peptide, AP1 luciferase reporter in Jurkat cells expressing the TCR [1] [µM] | binding result [2] | binding result (peptide on HLA-A*02:01) | Cell Frequency ≥1000 MFI, ≥1% (% tetramer positive cells in the Ag+ gate) [3] [%]
PN42780 (TCR, V domains shown) V domain 1: TQLLEQSPQFLSIQEGENLTVYCNSSSVFSSLQWYRQEPGEGPVLLVTVVTGGEVKKLKRLTFQFGDARKDSSLHITAAQPGDTGLYLCAGGTSGTYKYIFGTGTRLKVLA V domain 2: EAQVTQNPRYLITVTGKKLTVTCSQNMNHEYMSWYRQDPGLGLRQIYYSMNVEVTDKGDVPEGYKVSRKEKRNFPLILESPSPNQTSLYFCASSPGTPNYGYTFGSGTRLTVV | 1.25 | recognises | no recognition | 4.89
PN42561 (TCR, V domains shown) V domain 1: DAKTTQPNSMESNEEEPVHLPCNHSTISGTDYIHWYRQLPSQGPEYVIHGLTSNVNNRMASLAIAEDRKSSTLILHRATLRDAAVYYCILRDGTGNQFYFGTGTSLTVIP V domain 2: EAQVTQNPRYLITVTGKKLTVTCSQNMNHEYMSWYRQDPGLGLRQIYYSMNVEVTDKGDVPEGYKVSRKEKRNFPLILESPSPNQTSLYFCASSLWTGGGYTFGSGTRLTVV | 0.0137 | recognises | no recognition | 80.2
PN42707 (TCR, V domains shown) V domain 1: GESVGLHLPTLSVQEGDNSIINCAYSNSASDYFIWYKQESGKGPQFIIDIRSNMDKRQGQRVTVLLNKTVKHLSLQIAATQPGDSAVYFCAENKRDNYGQNFVFGPGTRLSVLP V domain 2: EAQVTQNPRYLITVTGKKLTVTCSQNMNHEYMSWYRQDPGLGLRQIYYSMNVEVTDKGDVPEGYKVSRKEKRNFPLILESPSPNQTSLYFCASSFWVNTEAFFGQGTRLTVV | 0.0118 | recognises | no recognition | 7.28
PN42365 (TCR, V domains shown) V domain 1: TQLLEQSPQFLSIQEGENLTVYCNSSSVFSSLQWYRQEPGEGPVLLVTVVTGGEVKKLKRLTFQFGDARKDSSLHITAAQPGDTGLYLCAANGGSQGNLIFGKGTKLSVKP V domain 2: DAGVTQSPTHLIKTRGQQVTLRCSPKSGHDTVSWYQQALGQGPQFIFQYYEEEERQRGNFPDRFSGHQFPNYSSELNVNALLLGDSALYLCASSLQDYGYTFGSGTRLTVV | 0.0159 | recognises | no recognition | 95.8
PN42386 (TCR, V domains shown) V domain 1: TQLLEQSPQFLSIQEGENLTVYCNSSSVFSSLQWYRQEPGEGPVLLVTVVTGGEVKKLKRLTFQFGDARKDSSLHITAAQPGDTGLYLCATNGGSQGNLIFGKGTKLSVKP V domain 2: DAGVTQSPTHLIKTRGQQVTLRCSPKSGHDTVSWYQQALGQGPQFIFQYYEEEERQRGNFPDRFSGHQFPNYSSELNVNALLLGDSALYLCASSLQDYGYTFGSGTRLTVV | 0.0271 | recognises | no recognition | 82.2
PN42455 (TCR, V domains shown, stained with anti-mouse TCR constant region antibody H57-597) and full-length chains were expressed on CHO cells) V domain 1: DAKTTQPNSMESNEEEPVHLPCNHSTISGTDYIHWYRQLPSQGPEYVIHGLTSNVNNRMASLAIAEDRKSSTLILHRSTLRDAAVYYCILRPDSWGKFQFGAGTQVVVTP V domain 2: DAGVTQSPTHLIKTRGQQVTLRCSPKSGHDTVSWYQQALGQGPQFIFQYYEEEERQRGNFPDRFSGHQFPNYSSELNVNALLLGDSALYLCASSLVDYGYTFGSGTRLTVV | – | recognises | – | 53
PN42840 (TCR, V domains shown) V domain 1: TQLLEQSPQFLSIQEGENLTVYCNSSSVFSSLQWYRQEPGEGPVLLVTVVTGGEVKKLKRLTFQFGDARKDSSLHITAAQPGDTGLYLCAEGGGSQGNLIFGKGTKLSVKP V domain 2: DAGVTQSPTHLIKTRGQQVTLRCSPKSGHDTVSWYQQALGQGPQFIFQYYEEEERQRGNFPDRFSGHQFPNYSSELNVNALLLGDSALYLCASSWTDYGYTFGSGTRLTVV | 0.0309 | recognises | no recognition | 52.5

Further lines, results first:

EC50 (µM) of peptide, AP1 luciferase reporter in Jurkat cells expressing the TCR [1] [µM] | binding result [2] | binding result (peptide on HLA-A*02:01) | Cell Frequency ≥1000 MFI, ≥1% (% tetramer positive cells in the Ag+ gate) [3] [%] | Binder
0.727 | recognises | no recognition | 24.7 | PN42706 (TCR, V domains shown) V domain 1: GIQVEQSPPDLILQEGANSTLRCNFSDSVNNLQWFHQNPWGQLINLFYIPSGTKQNGRLSATTVATERYSLLYISSSQTTDSGVYFCAVEASGTYKYIFGTGTRLKVLA V domain 2: EAQVTQNPRYLITVTGKKLTVTCSQNMNHEYMSWYRQDPGLGLRQIYYSMNVEVTDKGDVPEGYKVSRKEKRNFPLILESPSPNQTSLYFCASSWGTGGYGYTFGSGTRLTVV
0.232 | recognises | no recognition | 61.3 | PN42442 (TCR, V domains shown) V domain 1: TQLLEQSPQFLSIQEGENLTVYCNSSSVFSSLQWYRQEPGEGPVLLVTVVTGGEVKKLKRLTFQFGDARKDSSLHITAAQPGDTGLYLCAGGTSGTYKYIFGTGTRLKVLA V domain 2: EAQVTQNPRYLITVTGKKLTVTCSQNMNHEYMSWYRQDPGLGLRQIYYSMNVEVTDKGDVPEGYKVSRKEKRNFPLILESPSPNQTSLYFCASSPGTANYGYTFGSGTRLTVV
0.0281 | recognises | no recognition | 92 | PN42562 (TCR, V domains shown) V domain 1: TQLLEQSPQFLSIQEGENLTVYCNSSSVFSSLQWYRQEPGEGPVLLVTVVTGGEVKKLKRLTFQFGDARKDSSLHITAAQPGDTGLYLCAGGPSGTYKYIFGTGTRLKVLA V domain 2: EAQVTQNPRYLITVTGKKLTVTCSQNMNHEYMSWYRQDPGLGLRQIYYSMNVEVTDKGDVPEGYKVSRKEKRNFPLILESPSPNQTSLYFCASSPGTPNYGYTFGSGTRLTVV
– | recognises | – | 40.8 | PN42750 (TCR, V domains shown, stained with anti-mouse TCR constant region antibody H57-597) and full-length chains were expressed on CHO cells) V domain 1: DAKTTQPNSMESNEEEPVHLPCNHSTISGTDYIHWYRQLPSQGPEYVIHGLTSNVNNRMASLAIAEDRKSSTLILHRSTLRDAAVYYCILRPDSWGKFQFGAGTQVVVTP V domain 2: DVKVTQSSRYLVKRTGEKVFLECVQDMDHENMFWYRQDPGLGLRLIYFSYDVKMKEKGDIPEGYSVSREKKERFSLILESASTNQTSMYLCASSTVRQGNYGYTFGSGTRLTVV
– | recognises | – | 54.2 | PN42476 (TCR, stained with anti-mouse TCR constant region antibody H57-597) and full-length chains were expressed on CHO cells) TCR alpha: DAKTTQPNSMESNEEEPVHLPCNHSTISGTDYIHWYRQLPSQGPEYVIHGLTSNVNNRMASLAIAEDRKSSTLILHRSTLRDAAVYYCILRPDSWGKFQFGAGTQVVVTP TCR beta: EAQVTQSPRYLITVTGKKLTVTCSQNMDHEYMSWYRQDPGLGLRQIYYSMNVEVTDKGDVPEGYKVPRKEKRSFPLILESPCCSQTPLYLCASSLGGVDERLSFGSGTQLSVL
– | recognises | no recognition | 27 | PN42655 (TCR, V domains shown, stained with anti-mouse TCR constant region antibody H57-597) and full-length chains were expressed on CHO cells) V domain 1: DAKTTQPNSMESNEEEPVHLPCNHSTISGTDYIHWYRQLPSQGPEYVIHGLTSNVNNRMASLAIAEDRKSSTLILHRSTLRDAAVYYCILRPDSWGKFQFGAGTQVVVTP V domain 2: EAQVTQNPRYLITVTGKKLTVTCSQNMNHEYMSWYRQDPGLGLRQIYYSMNVEVTDKGDVPEGYKVSRKEKRNFPLILESPSPNQTSLYFCASSLWTGGGYTFGSGTRLTVV
0.00242 | recognises | no recognition | 90.3 | PN42498 (TCR, V domains shown) V domain 1: TQLLEQSPQFLSIQEGENLTVYCNSSSVFSSLQWYRQEPGEGPVLLVTVVTGGEVKKLKRLTFQFGDARKDSSLHITAAQPGDTGLYLCAGDGGSQGNLIFGKGTKLSVKP V domain 2: DAGVTQSPTHLIKTRGQQVTLRCSPKSGHDTVSWYQQALGQGPQFIFQYYEEEERQRGNFPDRFSGHQFPNYSSELNVNALLLGDSALYLCASSLVDYGYTFGSGTRLTVV
– | recognises | – | 60.2 | PN42776 (TCR, V domains shown, stained with anti-mouse TCR constant region antibody H57-597) and full-length chains were expressed on CHO cells) V domain 1: DAKTTQPNSMESNEEEPVHLPCNHSTISGTDYIHWYRQLPSQGPEYVIHGLTSNVNNRMASLAIAEDRKSSTLILHRSTLRDAAVYYCILRPDSWGKFQFGAGTQVVVTP V domain 2: DAGVTQSPTHLIKTRGQQVTLRCSPKSGHDTVSWYQQALGQGPQFIFQYYEEEERQRGNFPDRFSGHQFPNYSSELNVNALLLGDSALYLCASSWTDYGYTFGSGTRLTVV
0.0095 | recognises | no recognition | 4.92 | PN42689 (TCR, V domains shown) V domain 1: TQLLEQSPQFLSIQEGENLTVYCNSSSVFSSLQWYRQEPGEGPVLLVTVVTGGEVKKLKRLTFQFGDARKDSSLHITAAQPGDTGLYLCAEDGGSQGNLIFGKGTKLSVKP V domain 2: DAGVTQSPTHLIKTRGQQVTLRCSPKSGHDTVSWYQQALGQGPQFIFQYYEEEERQRGNFPDRFSGHQFPNYSSELNVNALLLGDSALYLCASSLSDYGYTFGSGTRLTVV
